In patent US20110294227A1:

How the values were obtained:
Assay in all cases: DELFIA Xpress PlGF sandwich immunoassay; tested substance at 5000 pg/mL
[1] = target: PlGF-1 (glycosylated), purified recombinant placental growth factor isoform 1 (human) (UniProt P49763)
[2] = target: PlGF-3 (non-glycosylated), purified recombinant placental growth factor isoform 3 (human) (UniProt P49763)
[3] = target: PlGF-2 (glycosylated), purified recombinant placental growth factor isoform 2 (human)
PlGF-2 (glycosylated), purified recombinant placental growth factor isoform 2 (human), sequence (chain, as listed by the source limits assumed): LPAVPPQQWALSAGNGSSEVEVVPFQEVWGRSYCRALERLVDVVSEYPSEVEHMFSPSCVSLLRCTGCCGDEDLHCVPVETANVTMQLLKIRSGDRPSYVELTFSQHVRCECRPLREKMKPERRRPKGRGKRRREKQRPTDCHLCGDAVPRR

P1GF-1 antibody provided with the DELFIA Xpress kit (commercial DELFIA Xpress P1GF method, PerkinElmer)
Observed cross-reactivity (%) [1]: 33% | Observed cross-reactivity (%) [2]: 5% | Observed cross-reactivity (%) [3]: 16%
